# Assay results taken from publication PMC9352680, “A comprehensive thermodynamic model for RNA binding by the Saccharomyces cerevisiae Pumilio protein PUF4”.
# T1: PUF4 RNA-binding domain (Saccharomyces cerevisiae, UniProt P25339 537-888)
# T1 sequence: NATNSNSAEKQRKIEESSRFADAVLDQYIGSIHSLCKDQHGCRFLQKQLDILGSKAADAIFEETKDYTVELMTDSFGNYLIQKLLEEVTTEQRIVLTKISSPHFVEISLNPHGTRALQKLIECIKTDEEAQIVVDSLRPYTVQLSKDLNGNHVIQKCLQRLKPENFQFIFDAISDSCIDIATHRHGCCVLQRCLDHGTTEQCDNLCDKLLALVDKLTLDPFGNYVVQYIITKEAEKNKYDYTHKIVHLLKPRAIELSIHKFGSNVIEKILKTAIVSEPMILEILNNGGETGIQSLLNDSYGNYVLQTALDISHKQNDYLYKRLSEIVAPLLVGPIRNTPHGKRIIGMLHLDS
# Molecular target: T1, PUF4 RNA-binding domain
# Test: Mg; RNA-MaP; 20 mM Na-HEPES pH 7.4, 30 mM KOAc, 0.75 mM MgCl2, 0.1% Tween-20, 5% glycerol, 0.1 mg/mL BSA, 2 mM DTT; 25 C; 0.0125-409.6 nM protein
# Conditions: tags: N-His6-TEV cleaved; C-SNAP kept, Cy3B-labelled; label: tethered on chip by stalled RNA polymerase
row,Binder,Kd [nM]
1,UCUCUUCAUAUAUAUAGCUCUCUU (ssRNA) [Id_ii_S1_P3E.3_K3.2_C3.2_[T-1A]_H3.2_A3.1_F3.1_T3.2_[T9G]_[A10C]],512
2,UCUCUUCAUAUAUAUAGUUCUCUU (ssRNA) [Id_ii_S1_P3E.3_K3.2_C3.2_[T-1A]_H3.2_A3.1_F3.1_T3.2_[T9G]_[A10T]],413
3,UCUCUUCAUAUAUAUACGUCUCUU (ssRNA) [Id_ii_S1_P3E.3_K3.2_C3.2_[T-1A]_H3.2_A3.1_F3.1_T3.2_[T9C]_[A10G]],1120
4,UCUCUUCAUAUAUAUACUUCUCUU (ssRNA) [Id_ii_S1_P3E.3_K3.2_C3.2_[T-1A]_H3.2_A3.1_F3.1_T3.2_[T9C]_[A10T]],618
5,UCUCUUCAUAUAUAUACAUCUCUU (ssRNA) [Id_ii_S1_P3E.3_K3.2_C3.2_[T-1A]_H3.2_A3.1_F3.1_T3.2_[T9C]],1300
6,UCUCUUCAUAUAUAUAAUUCUCUU (ssRNA) [Id_ii_S1_P3E.3_K3.2_C3.2_[T-1A]_H3.2_A3.1_F3.1_T3.2_[T9A]_[A10T]],669
7,UCUCUUCAUAUAUAUAUCUCUCUU (ssRNA) [Id_ii_S1_P3E.3_K3.2_C3.2_[T-1A]_H3.2_A3.1_F3.1_T3.2_[A10C]],717
8,UCUCUUUAUAAAUUAUCUCUU (ssRNA) [Ib_S1_P4E.1_K4.1_C4.1_H4.1_[G2A]_A4.1_[T5A]_F4.1_T4.1],128
9,UCUCUUCAUAUAUAUAUUUCUCUU (ssRNA) [Id_ii_S1_P3E.3_K3.2_C3.2_[T-1A]_H3.2_A3.1_F3.1_T3.2_[A10T]],515
10,UCUCUUCAUAUAUAUAUAUCUCUU (ssRNA) [Id_ii_S1_P3E.3_K3.2_C3.2_[T-1A]_H3.2_A3.1_F3.1_T3.2],624
11,UCUCUUCUUAUAUAUAGCUCUCUU (ssRNA) [Id_ii_S1_P3E.3_K3.2_C3.2_H3.2_A3.1_F3.1_T3.2_[T9G]_[A10C]],77.5
12,UCUCUUCUUAUAUAUAGUUCUCUU (ssRNA) [Id_ii_S1_P3E.3_K3.2_C3.2_H3.2_A3.1_F3.1_T3.2_[T9G]_[A10T]],109
13,UCUCUUCUUAUAUAUACGUCUCUU (ssRNA) [Id_ii_S1_P3E.3_K3.2_C3.2_H3.2_A3.1_F3.1_T3.2_[T9C]_[A10G]],1260
14,UCUCUUCUUAUAUAUACCUCUCUU (ssRNA) [Id_ii_S1_P3E.3_K3.2_C3.2_H3.2_A3.1_F3.1_T3.2_[T9C]_[A10C]],1300
15,UCUCUUCUUAUAUAUACUUCUCUU (ssRNA) [Id_ii_S1_P3E.3_K3.2_C3.2_H3.2_A3.1_F3.1_T3.2_[T9C]_[A10T]],634
16,UCUCUUCUUAUAUAUACAUCUCUU (ssRNA) [Id_ii_S1_P3E.3_K3.2_C3.2_H3.2_A3.1_F3.1_T3.2_[T9C]],907

row,Binder,Kd [nM]
1,UCUCUUCUUAUAUAUAAAUCUCUU (ssRNA) [Id_ii_S1_P3E.3_K3.2_C3.2_H3.2_A3.1_F3.1_T3.2_[T9A]],1180
2,UCUCUUCUUAUAUAUAUGUCUCUU (ssRNA) [Id_ii_S1_P3E.3_K3.2_C3.2_H3.2_A3.1_F3.1_T3.2_[A10G]],499
3,UCUCUUUUUAUCUUAUCUCUU (ssRNA) [Ib_S1_P4E.1_K4.1_C4.1_H4.1_[G2T]_A4.1_[A6C]_F4.1_T4.1],> 2300
4,UCUCUUCUUAUAUAUAUCUCUCUU (ssRNA) [Id_ii_S1_P3E.3_K3.2_C3.2_H3.2_A3.1_F3.1_T3.2_[A10C]],600
5,UCUCUUCUUAUAUAUAUAUCUCUU (ssRNA) [Id_ii_S1_P3E.3_K3.2_C3.2_H3.2_A3.1_F3.1_T3.2],394
6,UCUCUUGCACACUAUACGUCUCUU (ssRNA) [Id_ii_S1_P3E.4_K3.3_C3.2_[C-2G]_[T-1C]_H3.3_A3.1_F3.1_T3.2_[T9C]_[A10G]],671
7,UCUCUUGCACACUAUACCUCUCUU (ssRNA) [Id_ii_S1_P3E.4_K3.3_C3.2_[C-2G]_[T-1C]_H3.3_A3.1_F3.1_T3.2_[T9C]_[A10C]],278
8,UCUCUUGCACACUAUACUUCUCUU (ssRNA) [Id_ii_S1_P3E.4_K3.3_C3.2_[C-2G]_[T-1C]_H3.3_A3.1_F3.1_T3.2_[T9C]_[A10T]],122
9,UCUCUUGCACACUAUACAUCUCUU (ssRNA) [Id_ii_S1_P3E.4_K3.3_C3.2_[C-2G]_[T-1C]_H3.3_A3.1_F3.1_T3.2_[T9C]],275
10,UCUCUUGCACACUAUAACUCUCUU (ssRNA) [Id_ii_S1_P3E.4_K3.3_C3.2_[C-2G]_[T-1C]_H3.3_A3.1_F3.1_T3.2_[T9A]_[A10C]],110
11,UCUCUUGCACACUAUAUUUCUCUU (ssRNA) [Id_ii_S1_P3E.4_K3.3_C3.2_[C-2G]_[T-1C]_H3.3_A3.1_F3.1_T3.2_[A10T]],94.8
12,UCUCUUGUACACUAUACCUCUCUU (ssRNA) [Id_ii_S1_P3E.4_K3.3_C3.2_[C-2G]_H3.3_A3.1_F3.1_T3.2_[T9C]_[A10C]],0.984
13,UCUCUUGUACACUAUAACUCUCUU (ssRNA) [Id_ii_S1_P3E.4_K3.3_C3.2_[C-2G]_H3.3_A3.1_F3.1_T3.2_[T9A]_[A10C]],1.63
14,UCUCUUUUUAUUUUAUCUCUU (ssRNA) [Ib_S1_P4E.1_K4.1_C4.1_H4.1_[G2T]_A4.1_[A6T]_F4.1_T4.1],> 2300
15,UCUCUUGUACACUAUAAUUCUCUU (ssRNA) [Id_ii_S1_P3E.4_K3.3_C3.2_[C-2G]_H3.3_A3.1_F3.1_T3.2_[T9A]_[A10T]],1.16
